# Experimental data from patent US20120184020A1, “ENGINEERED MICROORGANISMS WITH ENHANCED FERMENTATION ACTIVITY” (Verdezyne, Inc., priority 2009, published 2012).
# Numbering of substitutions follows the chain as printed. Numbers in names are those of the source.
# B1: Codon-optimized EDA from P. aeruginosa: codon-optimized version of the P. aeruginosa EDA gene (protein, UniProt O68283 1-220, looked up)
# 2-dehydro-3-deoxy-phosphogluco …: MHNLEQKTARIDTLCREARILPVITIDREADILPMADALAAGGLTALEITLRTAHGLTAIRRLSEERPHLRIGAGTVLDPRTFAAAEKAGASFVVTPGCTDELLRFALDSEVPLLPGVASASEIMLAYRHGYRRFKLFPAEVSGGPAALKAFSGPFPDIRFCPTGGVSLNNLADYLAVPNVMCVGGTWMLPKAVVDRGDWAQVERLSREALERFAEHRRH
# modifications: codon-optimized gene
# B2: XI-Rp10: chimera: first 10 amino acids of Piromyces xylose isomerase then amino acids 11 to 438 of Ruminococcus enzyme, SEQ ID NO. 58 (protein)
# chain: MAKEYFPQIQQYQGPKSTDPLSFKYYNPEEVINGKTMREHLKFALSWWHTMGGDGTDMFGCGTTDKTWGQSDPAARAKAKVDAAFEIMDKLSIDYYCFHDRDLSPEYGSLKATNDQLDIVTDYIKEKQGDKFKCLWGTAKCFDHPRFMHGAGTSPSADVFAFSAAQIKKALESTVKLGGNGYVFWGGREGYETLLNTNMGLELDNMARLMKMAVEYGRSIGFKGDFYIEPKPKEPTKHQYDFDTATVLGFLRKYGLDKDFKMNIEANHATLAQHTFQHELRVARDNGVFGSIDANQGDVLLGWDTDQFPTNIYDTTMCMYEVIKAGGFTNGGLNFDAKARRGSFTPEDIFYSYIAGMDAFALGFRAALKLIEDGRIDKFVADRYASWNTGIGADIIAGKADFASLEKYALEKGEVTASLSSGRQEMLESIVNNVLFSL
# B3: XI-Rp15: chimera: first 15 amino acids of Piromyces xylose isomerase then amino acids 16 to 438 of Ruminococcus enzyme, SEQ ID NO. 60 (protein)
# chain: B2 chain with Q11K, Y12I, Q13K, G14F, P15E
# B4: Mutant 13: S. cerevisiae ZWF1 site-directed mutant A24G/A51D (protein, UniProt P11412 2-505, looked up, variant A24G A51D)
# Glucose-6-phosphate …: SEGPVKFEKNTVISVFGASGDLGKKKTFPALFGLFREGYLDPSTKIFGYDRSKLSMEEDLKSRVLPHLKKPHGEADDSKVEQFFKMVSYISGNYDTDEGFDELRTQIEKFEKSANVDVPHRLFYLALPPSVFLTVAKQIKSRVYAENGITRVIVEKPFGHDLASARELQKNLGPLFKEEELYRIDHYLGKELVKNLLVLRFGNQFLNASWNRDNIQSVQISFKERFGTEGRGGYFDSIGIIRDVMQNHLLQIMTLLTMERPVSFDPESIRDEKVKVLKAVAPIDTDDVLLGQYGKSEDGSKPAYVDDDTVDKDSKCVTFAAMTFNIENERWEGVPIMMRAGKALNESKVEIRLQYKAVASGVFKDIPNNELVIRVQPDAAVYLKFNAKTPGLSNATQVTDLNLTYASRYQDFWIPEAYEVLIRDALLGDHSNFVRDDELDISWGIFTPLLKHIERPDGPTPEIYPYGSRGPKGLKEYMQKHKYVMPEKHPYAWPVTKPEDTKDN
# B5: XI-Rp5: chimera: first 5 amino acids of Piromyces xylose isomerase followed by Ruminococcus xylose isomerase, SEQ ID NO. 56 (protein)
# chain: MAKEYFSNIGKIQYQGPKSTDPLSFKYYNPEEVINGKTMREHLKFALSWWHTMGGDGTDMFGCGTTDKTWGQSDPAARAKAKVDAAFEIMDKLSIDYYCFHDRDLSPEYGSLKATNDQLDIVTDYIKEKQGDKFKCLWGTAKCFDHPRFMHGAGTSPSADVFAFSAAQIKKALESTVKLGGNGYVFWGGREGYETLLNTNMGLELDNMARLMKMAVEYGRSIGFKGDFYIEPKPKEPTKHQYDFDTATVLGFLRKYGLDKDFKMNIEANHATLAQHTFQHELRVARDNGVFGSIDANQGDVLLGWDTDQFPTNIYDTTMCMYEVIKAGGFTNGGLNFDAKARRGSFTPEDIFYSYIAGMDAFALGFRAALKLIEDGRIDKFVADRYASWNTGIGADIIAGKADFASLEKYALEKGEVTASLSSGRQEMLESIVNNVLFSL
# Assays:
# [1] = Xylose isomerase activity/kinetic assay on soluble whole cell extract (sorbitol dehydrogenase coupled, NADH, A340); type: biochemical; settings: for Km: xylose 40-500 mM
# Procedure: […] Louis, Mo.), and about 2 U sorbitol dehydrogenase (Roche) at about 30° C. […] A Beckman DU-800 was utilized with an Enzyme Mechanism software package (Beckman Coulter, Inc.), and the change in the A340 was monitored for 2-3 minutes.
# […] Louis, Mo.), and 2 U Sorbitol Dehydrogenase (SDH) (Roche, Indianapolis, Ind.) at about 30° C. […] A Beckman DU-800 spectrophotometer was utilized with an Enzyme Mechanism software package (Beckman Coulter, Inc, Brea, Calif.), and the change in the A340 was monitored for 2-3 minutes.
# […] Louis, Mo.), and 2 U sorbitol dehydrogenase (SDH) (Roche, Indianapolis, Ind.) at about 30° C. […] A Beckman DU-800 spectrophotometer was utilized with an Enzyme Mechanism software package (Beckman Coulter, Inc, Brea, Calif.), and the change in the A340 was monitored for 2-3 minutes.
# Approximately 20 μg of soluble whole cell extract from each transformed cell line was prepared using Y-PER plus reagent as described above was incubated in a solution containing about 100 mM Tris, pH 7.5, 10 mM MgCl ? 2, 0.15 mM NADH (Sigma, St. Louis, Mo.), and 2 U Sorbitol Dehydrogenase (SDH) (Roche, Indianapolis, Ind.) at about 30° C. […] A Beckman DU-800 spectrophotometer was utilized with an Enzyme Mechanism software package (Beckman Coulter, Inc, Brea, Calif.), and the change in the A340 was monitored for 2-3 minutes.
# [2] = test system: engineered yeast (S. cerevisiae); assay: Heterologous xylose isomerase expression in yeast (active yes/no); type: cell-based; settings: xylose isomerase of donor organism expressed in engineered yeast (S. cerevisiae)
# [3] = EDA activity assay: S. cerevisiae EDA extracts with saturating E. coli EDD extract (LDH coupled, NADH); type: biochemical; settings: EDAs expressed in S. cerevisiae, saturating E. coli EDD extract
# Procedure: EDA genes isolated from a variety of sources were expressed in yeast and evaluated independently of EDA activity, to identify EDA activities suitable of inclusion in an engineered yeast strain. […] The activity of integrated EDAs in Thermosacc-Gold haploids, were also evaluated in this manner.
# EDD extractions (adapted from Chemyan et al, Protein Science 16:2368-2377, 2007): • 1) Pellet cells in 50 ml conical tubes, 4° C., 3,000 rpm, 10 mins, discard supernatant. • 2) Resuspend in 2 ml degassed PDGH buffer (20 mM MES pH 6.5, 30 mM NaCl, 5 mM MnCl2, 0.5 mM FeCl2, 10 mM 2-mercaptoethanol, 10 mM cysteine, sparged with nitrogen gas). Move to hungate tube. • 3) Add 0.1% Triton X-100, 10 ng/ml DNase, 10 μg/ml PMSF, 10 μg/ml TAME (Na-(p-toluene sulfonyl)-L-arginine methyl ester), 100 μg/ml lysozyme. • 4) Sparge hungate tube with nitrogen gas, cap and seal. Incubate 2 hours at 37° C., swirl occasionally. • 5) Clarify by centrifugation in 2-ml tube, 4° C., 10 mins, 14,000 rpm. Keep supernatant. • 6) Treat with 150 mM pyruvate and 10 mM sodium cyanoborohydride (work in hood) to inactivate aldolase activity. Incubate 30 mins at room temperature. • 7) During incubation, pre-equilibrate PD-10 column from GE • a. Remove top cap, pour off storage buffer. • b. Cut off bottom tip, fit in 50 ml conical with adapter. • c. Pour 5 ml of 20 mM MES buffer, pH 6.5 (total of 5 times). Discard flow-through. • 8) Run sample through column, then add MES buffer to a total of 2.5 ml volume added. Discard flow-through. • 9) Run 3.5 ml 20 mM MES pH 6.5 buffer to elute protein. Discard column in appropriate waste receptacle. • 10) Perform Bradford assay (1:10 or 1:20 dilution).
# • 1) Spin down in 50 ml conicals, 4° C., 3,400 rpm, 5 mins. […]
# Each reaction contains 50 mM Tris-HCl, pH 7, 10 mM MgCl2, 0.15 mM NADH, 15 μg LDH, saturating amounts of EDD determined empirically (usually −100 μg), 1-50 μg EDA (depending on level of activity), and 1 mM 6-phosphogluconate. Reactions are started by the addition of 6-phosphogluconate and monitored for 5 mins at 30° C.
# [4] = ZWF1 (glucose-6-phosphate dehydrogenase) kinetic assay on crude extract with NADP+ or NAD+; type: biochemical
# Procedure: Strain BY4742 zwf1 (ATCC Cat. No. 4011971; Winzeler E A, et al. Science 285: 901-906, 1999. PubMed: 10436161) was used as the base strain for all ZWF1 assays. The assays were performed as follows: A 5 ml overnight of the strain expressing the ZWF1 gene was grown in SCD-ura. A 50 ml culture of the strain was then grown for about 18 hours from an initial OD600 of about 0.2 until it had reached about OD600 of about 4. The cells were centrifuged at 1046×g washed twice with 25 ml cold sterile water, and resuspended in 2 ml/g Yper Plus (Thermo Scientific) plus 1×protease inhibitors (EDTA-free). The cells were allowed to lyse at room temperature for about 30 minutes with constant rotation of the tubes. The lysate was centrifuged at 16,100×g for 10 minutes at 4° C. and the supernatants were transferred to a new 1.5 ml microcentrifuge tube. Quantification of the lysates was performed using the Coomassie-Plus kit (Thermo Scientific, San Diego, Calif.) as directed by the manufacturer.
# The reaction was started with 20 mM glucose-6-phosphate and the reaction was monitored at A340. The specific activity was measured as the μmol substrate/min/mg protein.
molecule,measurement,setting,value
"Piromyces xylose isomerase: xylose isomerase from Piromyces strain E2, SEQ ID NO. 35 [reference compound]",Specific Activity,"[1]; soluble whole cell extract, about 30° C.",2.02 µmol/min/mg
same,Active? (yes/no),[2],Yes
B1,EDA activity compared (in words),[3],slight improvement over the native sequence
B2,Specific Activity,[1]; chimeric variants,2.10 µmol/min/mg
same,Km,[1]; chimeric variants,75.8 mM
B3,Specific Activity,[1]; chimeric variants,1.53 µmol/min/mg
same,Km,[1]; chimeric variants,49.3 mM
B4,NAD+ usage,"[4]; initial kinetic screening of S. cerevisiae ZWF1 (zwf1_sc) mutants, preliminary cofactor phenotype, NAD+ as cofactor",Yes
same,NADP+ usage,"[4]; initial kinetic screening of S. cerevisiae ZWF1 (zwf1_sc) mutants, preliminary cofactor phenotype, NADP+ as cofactor",No
same,cofactor utilization (NAD+ / NADP+),[4]; initial kinetic screening of S. cerevisiae ZWF1 mutants,enabled NAD+ utilization with concomitant loss of NADP+ utilization
B5,Specific Activity,[1]; chimeric variants,1.45 µmol/min/mg
same,Km,[1]; chimeric variants,66.5 mM
